Assay results: US20120023600A1 (Novartis, published 2012)

Legend:
DKK1-APP [1] = biological target: T1, DKK1-APP (human, UniProt O94907 32-266); assay: cell-based or functional assay
T1 sequence: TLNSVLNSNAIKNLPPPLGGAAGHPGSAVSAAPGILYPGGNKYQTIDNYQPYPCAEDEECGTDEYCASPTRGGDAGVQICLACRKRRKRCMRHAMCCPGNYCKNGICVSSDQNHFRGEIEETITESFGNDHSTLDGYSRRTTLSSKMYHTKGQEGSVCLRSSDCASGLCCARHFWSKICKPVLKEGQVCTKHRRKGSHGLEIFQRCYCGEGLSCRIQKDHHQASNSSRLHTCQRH

mouse DKK1 (R&D Systems) [2] = biological target: T2, mouse DKK1 (R&D Systems) (mouse, UniProt O54908 32-272); assay: Cross-reactivity mouse (grade in Table 4)
T2 construct: Bought protein
T2 sequence (looked up): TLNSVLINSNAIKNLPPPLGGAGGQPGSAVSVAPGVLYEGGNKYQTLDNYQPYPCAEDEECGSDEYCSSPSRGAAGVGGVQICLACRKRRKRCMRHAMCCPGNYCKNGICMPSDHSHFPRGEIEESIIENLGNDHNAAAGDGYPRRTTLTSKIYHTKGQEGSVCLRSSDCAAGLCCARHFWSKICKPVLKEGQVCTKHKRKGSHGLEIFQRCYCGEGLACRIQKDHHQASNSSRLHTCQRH

recombinant human DKK1 [3] = biological target: T3, recombinant human DKK1 (human, UniProt O94907 32-266); assay: SPR (Biacore), DKK1 immobilised on CM5 chip, Fab as analyte
T3 construct: also called Dickkopf-1; rhDKK1
T3 sequence: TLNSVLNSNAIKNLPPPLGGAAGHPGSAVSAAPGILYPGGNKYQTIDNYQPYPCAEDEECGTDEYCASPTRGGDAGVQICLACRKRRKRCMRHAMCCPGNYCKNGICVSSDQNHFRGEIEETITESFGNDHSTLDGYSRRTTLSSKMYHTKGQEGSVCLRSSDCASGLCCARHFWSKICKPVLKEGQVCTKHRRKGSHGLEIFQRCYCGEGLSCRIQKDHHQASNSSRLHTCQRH
Experimental: (§1) Using these clones, kinetic SPR analysis is performed on a. […] The Fab preparations are applied in concentration series of 16-500 nM at a flow rate of 20 μl/min. Association phase is set to 60 s and dissociation phase to 120 s.

cynomolgus DKK1 [4] = biological target: T4, cynomolgus DKK1 (cynomolgus monkey (Macaca fascicularis), UniProt A0A7N9IE82 32-266); assay: as above
T4 construct: also called cyno DKK1; monkey DKK1 (Novartis)
T4 sequence: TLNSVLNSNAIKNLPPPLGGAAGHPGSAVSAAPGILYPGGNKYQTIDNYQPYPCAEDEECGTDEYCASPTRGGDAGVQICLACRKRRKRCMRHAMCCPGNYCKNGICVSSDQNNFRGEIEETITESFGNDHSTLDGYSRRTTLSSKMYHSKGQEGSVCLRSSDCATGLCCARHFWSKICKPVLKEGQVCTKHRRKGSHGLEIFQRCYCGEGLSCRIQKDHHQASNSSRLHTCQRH
Experimental: as §1

recombinant human DKK1 [5] = biological target: T3, recombinant human DKK1; assay: as above; remark: listed apart in the source
Experimental: as §1

cynomolgus DKK1 [6] = biological target: T4, cynomolgus DKK1; assay: as above; remark: listed apart in the source
Experimental: as §1

recombinant human DKK1 [7] = biological target: T3, recombinant human DKK1; assay: as above; remark: listed apart in the source
Experimental: as §1

cynomolgus DKK1 [8] = biological target: T4, cynomolgus DKK1; assay: as above; remark: listed apart in the source
Experimental: as §1

DKK1-APP [9] = biological target: T1, DKK1-APP; assay: cell-based or functional assay; remark: listed apart in the source
rat DKK1 (Novartis) = biological target: T5, rat DKK1 (Novartis) (rat, UniProt A6I0Z0 32-270); assay: solution equilibrium titration (SET), ECL (BioVeris), IgG
T5 sequence: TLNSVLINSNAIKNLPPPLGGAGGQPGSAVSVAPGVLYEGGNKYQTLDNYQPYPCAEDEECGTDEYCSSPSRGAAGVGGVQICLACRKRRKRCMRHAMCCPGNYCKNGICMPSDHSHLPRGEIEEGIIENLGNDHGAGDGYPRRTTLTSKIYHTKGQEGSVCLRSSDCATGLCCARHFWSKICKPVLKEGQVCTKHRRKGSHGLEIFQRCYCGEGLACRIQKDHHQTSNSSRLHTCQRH
Description: (§2) Electrochemiluminescence (ECL) based affinity determination in solution and data evaluation are basically performed as described by [Haenel et al., 2005], the binding fit model is applied as modified according to [Piehler et al., 1997]). […] Biotinylated human. […] Subsequently, the concentration of unbound. IgG is quantified via ECL detection using the M-384 SERIES® analyzer (BioVeris, Europe).

recombinant human DKK1 [10] = biological target: T3, recombinant human DKK1; assay: as above
Description: as §2

cynomolgus DKK1 [11] = biological target: T4, cynomolgus DKK1; assay: as above
Description: as §2

mouse DKK1 (R&D Systems) [12] = biological target: T2, mouse DKK1 (R&D Systems); assay: as above
Description: as §2

DKK1-APP [13] = biological target: T1, DKK1-APP; assay: cell-based or functional assay; remark: listed apart in the source
biotinylated human DKK1 = biological target: T6, biotinylated human DKK1 (human, UniProt O94907 32-266, biotinylated (sites not given)); assay: ELISA, biotinylated DKK1 on Neutravidin plates, Fab 1 ug/ml, anti-FLAG-AP detection; single measurement
T6 construct: also called biotinylated DKK1; human recombinant, biotinylated DKK1
T6 sequence: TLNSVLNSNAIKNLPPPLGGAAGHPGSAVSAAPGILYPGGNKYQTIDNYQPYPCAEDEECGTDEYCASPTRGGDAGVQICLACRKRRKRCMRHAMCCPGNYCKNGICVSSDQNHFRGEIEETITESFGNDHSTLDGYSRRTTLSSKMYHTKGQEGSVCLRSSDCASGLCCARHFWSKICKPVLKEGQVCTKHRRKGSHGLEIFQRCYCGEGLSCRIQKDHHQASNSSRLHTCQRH
Experimental: Binding specificity of the matured Fabs in the presence of 50% human serum (HS) is determined. […] After coating of the antigen, wells are blocked with TBS/0.05% Tween (TBS-T) supplemented with 1% BSA for 1 h at room temperature. Purified Fabs described above are diluted either in TBS/4% BSA or TBS/50% HS at a final concentration of 1 μg/ml, added to the coated and blocked wells and the plates are incubated for 1 h at room temperature. For detection, an anti-FLAG alkaline phosphatase (AP)-conjugated antibody (1:5000 dilution in TBST) and the fluorogenic substrate AttoPhos (Roche) are used. After each incubation, the wells of the microtiter plates are washed with TBST five times, except after the final incubation step with the labeled secondary antibody when wells are washed three times.
The fluorescence is measured in a TECAN Spectrafluor plate reader.

recombinant human DKK1 [14] = biological target: T3, recombinant human DKK1; assay: solution equilibrium titration (SET), ECL (BioVeris), Fab
Experimental: (§3) Electrochemiluminescence (ECL) based affinity determination in solution and data evaluation are basically performed as described by Haenel et al., 2005. […] Subsequently, the concentration of unbound Fab is quantified by ECL detection using the M-SERIES® 384 analyzer (BioVeris Europe).
(§4) Affinities are calculated according to Haenel et al., 2005 Anal Biochem 339.1:182-184.

cynomolgus DKK1 [15] = biological target: T4, cynomolgus DKK1; assay: as above
Experimental: as §3, §4

mouse DKK1 (R&D Systems) [16] = biological target: T2, mouse DKK1 (R&D Systems); assay: as above
Experimental: as §3, §4

recombinant human DKK1 [17] = biological target: T3, recombinant human DKK1; assay: cell-based or functional assay

B1: MOR04455 (Fab, V domains shown)
VH: QVQLVESGGGLVQPGGSLRLSCAASGFTFSSYGMSWVRQAPGKGLEWVSGISGSGSYTYYADSVKGRFTISRDNSKNTLYLQMNSLRAEDTAVYYCARHYMDHWGQGTLVTVSS
VL: DIQMTQSPSSLSASVGDRVTITCRASQDISNYLHWYQQKPGKAPKLLIYGASNLQSGVPSRFSGSGSGTDFTLTISSLQPEDFAVYYCQQYDSIPMTFGQGTKVEIKR
notes: Fab with C-terminal FLAG and 6xHis tags
DKK1-APP [1]
  EC50: 39 nM
Mouse DKK1 (R&D Systems) [2]
  binding result: binds
Recombinant human DKK1 [3]
  Kd: 1.6 nM
Cynomolgus DKK1 [4]
  Kd: 1.5 nM
Recombinant human DKK1 [5]
  Kd: 1.6 nM
Cynomolgus DKK1 [6]
  Kd: 1.5 nM
Recombinant human DKK1 [7]
  Kd: 1.6 nM
Cynomolgus DKK1 [8]
  Kd: 1.5 nM
DKK1-APP [9]
  Luciferase reporter assay; EC50: 39 nM

B2: MOR4910 IgG (antibody, V domains shown)
VH: QVQLVESGGGLVQPGGSLRLSCAASGFTFSSYWMSWVRQAPGKGLEWVSGISYSGSNTHYADSVKGRFTISRDNSKNTLYLQMNSLRAEDTAVYYCARMGIDLDYWGQGTLVTVSS
VL: DIALTQPASVSGSPGQSITISCTGTSSDVGGFNYVSWYQQHPGKAPKLMIHDGSNRPSGVSNRFSGSKSGNTASLTISGLQAEDEADYYCQSWDVSPITAVFGGGTKLTVLG
notes: also called MOR04910 IgG
Rat DKK1 (Novartis)
  Kd: 0.016 nM
Recombinant human DKK1 [10]
  Kd: 0.017 nM
Cynomolgus DKK1 [11]
  Kd: 0.007 nM
Mouse DKK1 (R&D Systems) [12]
  Kd: 0.01 nM

B3: MOR04954 (Fab, V domains shown)
VH: QVQLVESGGGLVQPGGSLRLSCAASGFTFSSYWMSWVRQAPGKGLEWVSVIEHKDKGGTTYYAASVKGRFTISRDNSKNTLYLQMNSLRAEDTAVYYCARHGIDFDHWGQGTLVTVSS
VL: DIALTQPASVSGSPGQSITISCTGTSSDLGGYNYVSWYQQHPGKAPKLMIYDVNNRPSGVSNRFSGSKSGNTASLTISGLQAEDEADYYCQSYASGNTKVVFGGGTKLTVLG
DKK1-APP [13]
  Luciferase reporter assay w/o Kremen; Activity in 15% Human serum (%): 55%
Biotinylated human DKK1
  Binding activity w/50% Human serum vs 4% BSA (%): > 83%
Recombinant human DKK1 [14]
  Kd: 0.11 nM
Cynomolgus DKK1 [15]
  Kd: 0.112 nM
Mouse DKK1 (R&D Systems) [16]
  Kd: 0.036 nM
Recombinant human DKK1 [17]
  TCF/LEF luc assay w/Kremen: EC50: 1.3 nM
